Results from US6572751B1, “Method and apparatus for continuous flow isoelectric focusing for purifying biological substances” (priority 1997, dated 2003).

Test: Amylolytic activity of purified α-amylase
Conditions: middle outflow after second contifocusing run

B1: α-amylase: enzyme purified from Bacillus subtilis strain A-200 culture supernatant (protein, UniProt P00691 42-659, looked up)
Alpha-amylase: LTAPSIKSGTILHAWNWSFNTLKHNMKDIHDAGYTAIQTSPINQVKEGNQGDKSMSNWYWLYQPTSYQIGNRYLGTEQEFKEMCAAAEEYGIKVIVDAVINHTTSDYAAISNEVKSIPNWTHGNTQIKNWSDRWDVTQNSLLGLYDWNTQNTQVQSYLKRFLDRALNDGADGFRFDAAKHIELPDDGSYGSQFWPNITNTSAEFQYGEILQDSASRDAAYANYMDVTASNYGHSIRSALKNRNLGVSNISHYASDVSADKLVTWVESHDTYANDDEESTWMSDDDIRLGWAVIASRSGSTPLFFSRPEGGGNGVRFPGKSQIGDRGSALFEDQAITAVNRFHNVMAGQPEELSNPNGNNQIFMNQRGSHGVVLANAGSSSVSINTATKLPDGRYDNKAGAGSFQVNDGKLTGTINARSVAVLYPDDIAKAPHVFLENYKTGVTHSFNDQLTITLRADANTTKAVYQINNGPETAFKDGDQFTIGKGDPFGKTYTIMLKGTNSDGVTRTEKYSFVKRDPASAKTIGYQNPNHWSQVNAYIYKHDGSRVIELTGSWPGKPMTKNADGIYTLTLPADTDTTNAKVIFNNGSAQVPGQNQPGFDYVLNGLYNDSGLSGSLPH
  amylolytic activity: 200 U/g
